Results taken from the supplement of paper PMC9170038.

Tested on: MS2 coat protein
Test: apparent KD of MS2 coat protein; higher = weaker reporter binding
Settings: Eterna round: R107
In short: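 The designed RNA switches were transcribed on-chip from Illumina sequencing clusters. In 100 mM Tris-HCl pH 7.5, 80 mM KCl and 4 mM MgCl2, without or with constant ligand, they were titrated with SNAP-549-labelled MS2 coat protein from 0.7 or 1.5 nM to 3 µM in twofold steps. Apparent KD is the per-design median of normalised cluster binding-curve fits.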

[1] = input ligand: theophylline 20 uM
[2] = input ligand: theophylline 2 mM
[3] = input ligand: tryptophan 2.4 mM

UAUCCACAUGAGGAUCACCCAUGUAAGGAAGGAGCGGUGAAUGCACCAGGUAGGUCGCCUUGCUGAGGACAGCCGGUGGAUUCGU [Exclusion - Arginine A (Freestyle 24)]
apparent KD of MS2 coat protein (input ligand: arginine 13.2 mM): 14.7 nM
apparent KD of MS2 coat protein (input ligand: none): 17.7 nM
apparent KD of MS2 coat protein [1]: 17.9 nM
apparent KD of MS2 coat protein [2]: 21.9 nM
apparent KD of MS2 coat protein [3]: 16.2 nM

UAUCGUCAGACGGCCGCCACUAGAACAUGAGGAUCACCCAUGUAAGUGGCCGGUCUCCUCAUGACUAGGACCGGGUCUGACGAAU [(Trp1)-(Ms2)-(T)'-(M)'-(Trp2)_Design18]
apparent KD of MS2 coat protein (input ligand: arginine 13.2 mM): 9.69 nM
apparent KD of MS2 coat protein [1]: 14.1 nM
apparent KD of MS2 coat protein [2]: 10.9 nM

UCACAUGAGGAUCACCCAUGUACAGGCGAUACCAGCCGUACAUUGGGCCCUUGGCAGCGCACCGAGGACUUUUUAAGCAUCUCGG [Diatbeen]
apparent KD of MS2 coat protein (input ligand: arginine 13.2 mM): 26.2 nM
apparent KD of MS2 coat protein (input ligand: none): 19.8 nM
apparent KD of MS2 coat protein [1]: 401 nM
apparent KD of MS2 coat protein [2]: 282 nM
apparent KD of MS2 coat protein [3]: 23.8 nM

UCACAUGAGGAUCACCCAUGUCCAGGUGAAGGAGCGAUUAGGGAGUCAGGUAGGUCGCACCACAUGAGGAUCACCCAUGUGCCUG [EAA NP+V+V2 #8 DOUBLE]
apparent KD of MS2 coat protein (input ligand: arginine 13.2 mM): 18.4 nM
apparent KD of MS2 coat protein (input ligand: none): 22.8 nM
apparent KD of MS2 coat protein [1]: 27.5 nM
apparent KD of MS2 coat protein [2]: 25.4 nM
apparent KD of MS2 coat protein [3]: 24.1 nM

UCAGCACAUGAGGAUCACCCAUGUCGUGAUACCAGCCUGUGCGAAGGCCCUUGGCAGCACAGUCCCGAUUUGCUUAUAUGCACUU [theeternabot_sameState_MS2_Theo_A_48]
apparent KD of MS2 coat protein (input ligand: arginine 13.2 mM): 32.4 nM
apparent KD of MS2 coat protein [1]: 61 nM
apparent KD of MS2 coat protein [3]: 34.4 nM

UCGCCCAGAAAGGAUUCCUGGGAUAUGGAAGGAGCGCUGAUGCCAGCAGGUAGGUCGCCAACGGACAUGAGGAUCACCCAUGUAC [Same State - Arginine A (Freestyle 7)]
apparent KD of MS2 coat protein (input ligand: arginine 13.2 mM): 15.4 nM
apparent KD of MS2 coat protein (input ligand: none): 17.3 nM
apparent KD of MS2 coat protein [1]: 25.7 nM
apparent KD of MS2 coat protein [2]: 21.7 nM
apparent KD of MS2 coat protein [3]: 18 nM

UCGCCCAGGAUGGAAUCCUGGGAUAUGGAAGGAGCGCUGAUGCCAGCAGGUAGGUCGCCAACGGACAUGAGGAUCACCCAUGUAC [Same State - Arginine A (Freestyle 9)]
apparent KD of MS2 coat protein (input ligand: arginine 13.2 mM): 17.7 nM
apparent KD of MS2 coat protein (input ligand: none): 19.1 nM
apparent KD of MS2 coat protein [1]: 28.8 nM
apparent KD of MS2 coat protein [2]: 21.2 nM
apparent KD of MS2 coat protein [3]: 18.6 nM

UCGCUCUGGGUGAGAUCCGGAGAUAUGGAAGGAGCGCUGAUGCCAGCAGGUAGGUCGCCAACGGACAUGAGGAUCACCCAUGUAC [Same State - Arginine A (Freestyle 10)]
apparent KD of MS2 coat protein (input ligand: arginine 13.2 mM): 25 nM
apparent KD of MS2 coat protein (input ligand: none): 52.4 nM
apparent KD of MS2 coat protein [1]: 64.2 nM
apparent KD of MS2 coat protein [2]: 34.5 nM
apparent KD of MS2 coat protein [3]: 39.8 nM

UCGUGUCUAUUGGUUUAGCUUUAAUCGUUACGAGGACCGGUACGGCCGCCACUCGAUUUAACAUGAGGAUCACCCAUGUACUCUC [JR_ExcTryptoA_Sub012]
apparent KD of MS2 coat protein (input ligand: arginine 13.2 mM): 17.5 nM
apparent KD of MS2 coat protein [1]: 26.6 nM
apparent KD of MS2 coat protein [2]: 21.4 nM

UCUAGUGCGGGAAGGAGCGCCAUACAUGAGGAUCACCCAUGUUGAGCAUGCUCGUGUACUAGGCAGGUAGGUCGCCCGCUCUACG [Radionle]
apparent KD of MS2 coat protein (input ligand: arginine 13.2 mM): 28.8 nM
apparent KD of MS2 coat protein (input ligand: none): 27.2 nM
apparent KD of MS2 coat protein [1]: 30.9 nM
apparent KD of MS2 coat protein [2]: 23.5 nM
apparent KD of MS2 coat protein [3]: 23.3 nM

UCUGCCGCGGCUCCGAUCCUCCUGUAGUUCCGAGGACCGGUACGGCCGCCACUCGUAGCACAUGAGGAUCACCCAUGUCUUGCGG [Tiqurabira]
apparent KD of MS2 coat protein (input ligand: arginine 13.2 mM): 12.1 nM
apparent KD of MS2 coat protein [1]: 17.5 nM
apparent KD of MS2 coat protein [2]: 13 nM

UCUUGGUCCGCAAGGACCGUGAGUUGCGAUACCAGCACGGUAACGUGCCCUUGGCAGCGCACAUGAGGAUCACCCAUGUGGUGUU [#1 Exclusion - Theophylline A Attempt #15 (HarryS)]
apparent KD of MS2 coat protein (input ligand: arginine 13.2 mM): 71.6 nM
apparent KD of MS2 coat protein [1]: 520 nM
apparent KD of MS2 coat protein [3]: 210 nM

UCUUGGUCCGCAAGGACCUUGAGUUGCGAUACCAGCACGGUAACGUGCCCUUGGCAGCGCACAUGAGGAUCACCCAUGUGGUGUU [#1 Exclusion - Theophylline A Attempt #16 (HarryS)]
apparent KD of MS2 coat protein (input ligand: arginine 13.2 mM): 82.3 nM
apparent KD of MS2 coat protein [1]: 348 nM
apparent KD of MS2 coat protein [3]: 170 nM

UCUUUCUUUGUAGAUACCAGCGUGUUAUCUUUCUUUUGACAUGAGGAUCACCCAUGUAUAUGCCCUUGGCAGCUACAUAUUCUUU [#01 Same State - Theophylline B]
apparent KD of MS2 coat protein (input ligand: arginine 13.2 mM): 18.1 nM
apparent KD of MS2 coat protein [1]: 23.6 nM
apparent KD of MS2 coat protein [3]: 18.2 nM

UGACAGAUAACCGCUGGUGCUCUUGAGUUGCGAGGACCGGUACGGCCGCCACUCGACAACAUGAGGAUCACCCAUGUUGCGGGUC [Soleeror]
apparent KD of MS2 coat protein (input ligand: arginine 13.2 mM): 38.3 nM
apparent KD of MS2 coat protein (input ligand: none): 146 nM
apparent KD of MS2 coat protein [1]: 89.5 nM
apparent KD of MS2 coat protein [2]: 146 nM
apparent KD of MS2 coat protein [3]: 85.1 nM

UGACAUUGCUCAGAUACCAGACAUGAGCAUCAGCCAUGUACCAAGAGUACAUGUUAAAGUGUCCCUUGGCAGCUGAGCAAUGUCU [Mod of Eli's TheoBX5 #AlternateMS2 v3]
apparent KD of MS2 coat protein (input ligand: arginine 13.2 mM): 56.4 nM
apparent KD of MS2 coat protein (input ligand: none): 70.9 nM
apparent KD of MS2 coat protein [1]: 193 nM
apparent KD of MS2 coat protein [2]: 603 nM
apparent KD of MS2 coat protein [3]: 72 nM

UGACAUUGCUGCGAUACCAGACAUGAGGAUCACCCAUGUACCAAGGUAACCGAAAGGCAUGUCCCUUGGCAGCGCAGCAAUGUCU [MAT - Exclusion Theophlline B - Mod of Eli - D13]
apparent KD of MS2 coat protein (input ligand: arginine 13.2 mM): 12.8 nM
apparent KD of MS2 coat protein [1]: 21 nM
apparent KD of MS2 coat protein [3]: 12.2 nM

UGAGAUCCUCAUGAUACCAGUGUACUACAUGAGGAUCACCCAUGUAGCAACAUCUGUAGACACCCUUGGCAGCAUGAGACCACGU [Theo B SS t5]
apparent KD of MS2 coat protein (input ligand: arginine 13.2 mM): 17.5 nM
apparent KD of MS2 coat protein [1]: 35.2 nM
apparent KD of MS2 coat protein [3]: 15.6 nM

UGCGUACAUGAGGAUCACCCAUGUAUAGAUACCAGUCACCCAUGUGGCCCUUGGCAGCUAACAUGAGGAUCACUACAUGAGGAUC [Exclusion Theophylline A 3]
apparent KD of MS2 coat protein (input ligand: arginine 13.2 mM): 24.3 nM
apparent KD of MS2 coat protein [1]: 72.2 nM
apparent KD of MS2 coat protein [3]: 32.7 nM

UGGAAAGCACAUGAGGAUCACCCAUGUGAUACCAGCUGAAACUAAGGCCCUUGGCAGCACAUGGUACCAACCCUUUGGUAGUCCA [Vearedqu]
apparent KD of MS2 coat protein (input ligand: arginine 13.2 mM): 10.9 nM
apparent KD of MS2 coat protein [1]: 19.9 nM
apparent KD of MS2 coat protein [3]: 10.3 nM
